Data from patent US20140212406A1 (INSTITUT NATIONAL DE LA SANTE ET DE LA RECHERCHE MEDICALE …, published 2014).

Biological target: T1, rat wild type tPA (Rattus norvegicus), 6xHis-tagged (rat, UniProt P19637 33-559)
T1 construct: mature; Produced in HEK-293 cells and purified on Ni-NTA; also called wt-tPA; rat wt-tPA
Assay: binding of tPA variants to a solid-phase fibrin surface on PVC plates (3 independent experiments, 12 doses)

- Kd: 0.26 nM
B1: fibrin (other)
chain 1: GPRVVERHQSACKDSDWPFCSDEDWNYKCPSGCRMKGLIDEVNQDFTNRINKLKNSLFEYQKNNKDSHSLTTNIMEILRGDFSSANNRDNTYNRVSEDLRSRIEVLKRKVIEKVQHIQLLQKNVRAQLVDMKRLEVDIDIKIRSCRGSCSRALAREVDLKDYEDQQKQLEQVIAKDLLPSRDRQHLPLIKMKPVPDLVPGNFKSQLQKVPPEWKALTDMPQMRMELERPGGNEITRGGSTSYGTGSETESPRNPSSAGSWNSGSSGPGSTGNRNPGSSGTGGTATWKPGSSGPGSTGSWNSGSSGTGSTGNQNPGSPRPGSTGTWNPGSSERGSAGHWTSESSVSGSTGQWHSESGSFRPDSPGSGNARPNNPDWGTFEEVSGNVSPGTRREYHTEKLVTSKGDKELRTGKEKVTSGSTTTTRRSCSKTVTKTVIGPDGHKEVTKEVVTSEDGSDCPEAMDLGTLSGIGTLDGFRHRHPDEAAFFDTASTGKTFPGFFSPMLGEFVSETESRGSESGIFTNTKESSSHHPGIAEFPSRGKSSSYSKQFTSSTSYNRGDSTFESKSYKMADEAGSEADHEGTHSTKRGHAKSRPV
chain 2: GHRPLDKKREEAPSLRPAPPPISGGGYRARPAKAAATQKKVERKAPDAGGCLHADPDLGVLCPTGCQLQEALLQQERPIRNSVDELNNNVEAVSQTSSSSFQYMYLLKDLWQKRQKQVKDNENVVNEYSSELEKHQLYIDETVNSNIPTNLRVLRSILENLRSKIQKLESDVSAQMEYCRTPCTVSCNIPVVSGKECEEIIRKGGETSEMYLIQPDSSVKPYRVYCDMNTENGGWTVIQNRQDGSVDFGRKWDPYKQGFGNVATNTDGKNYCGLPGEYWLGNDKISQLTRMGPTELLIEMEDWKGDKVKAHYGGFTVQNEANKYQISVNKYRGTAGNALMDGASQLMGENRTMTIHNGMFFSTYDRDNDGWLTSDPRKQCSKEDGGGWWYNRCHAANPNGRYYWGGQYTWDMAKHGTDDGVVWMNWKGSWYSMRKMSMKIRPFFPQQ
chain 3: YVATRDNCCILDERFGSYCPTTCGIADFLSTYQTKVDKDLQSLEDILHQVENKTSEVKQLIKAIQLTYNPDESSKPNMIDAATLKSRKMLEEIMKYEASILTHDSSIRYLQEIYNSNNQKIVNLKEKVAQLEAQCQEPCKDTVQIHDITGKDCQDIANKGAKQSGLYFIKPLKANQQFLVYCEIDGSGNGWTVFQKRLDGSVDFKKNWIQYKEGFGHLSPTGTTEFWLGNEKIHLISTQSAIPYALRVELEDWNGRTSTADYAMFKVGPEADKYRLTYAYFAGGDAGDAFDGFDFGDDPSDKFFTSHNGMQFSTWDNDNDKFEGNCAEQDGSGWWMNKCHAGHLNGVYYQGGTYSKASTPNGYDNGIIWATWKTRWYSMKKTTMKIIPFNRLTIGEGQQHHLGGAKQVRPE
